Consider 16 molecules from patent US20250340646A1 (ELPIS BIOPHARMACEUTICALS, published 2025).

Changes are numbered by the printed parent chain. Names may count otherwise.

One may read the EC50 as the midpoint of the concentration-response curve. By Kd is commonly meant the free concentration of one partner at which half of the binding sites on the other are occupied at equilibrium, for simple one-to-one binding. One may read the koff as a measure of how fast the partners let go of each other. Broadly, the kon is the rate constant with which the complex forms. A word on the IC50: it is the midpoint of a concentration-inhibition curve. Read a low IC50 as inhibition by little substance.

B1: 2018EP161-F08 scFv (scFv, V domains shown)
VH: not shown
VL: DIVMTQSPSSLSASVGDRVTITCRASQTVSTYINWYQQRSGKGPKLLIFDASRLQSGAPSRFSGSGSGTEFTLTITSLQPDDSATYYCQQSYRIPLSFGGGTKVEIR
B2: 2018EP173-H11 scFv (scFv, V domains shown)
VH: QVQLVQSGGGLVKPGGSLRLSCAASGFTFSSYSMNWVRQAPGKGLEWVSSISSSSSYIYYADSVKGRFTISRDNAKNSLYLQMNSLKAEDTAVYYCARDSLQWLALDYWGQGTLVTVSS
VL: QPVLTQPPSVSVAPGETATITCGGNNIGRKSVHWYLQKPGQAPVLVIGHDTDRPSGIPARFSGSNSGNTATLTINRVEAGDEADYYCQVWDTSGHHYVFGTGTKVTVL
notes: not shown: scFv linker and domain order of the library scFv
B3: 2018EP164-F04 scFv (scFv, V domains shown)
VH: QVQLQQWGAGLLKPSETLSLTCAVYGGSFSGYYWSWIRQPPGKGLEWIGEINHSGSTNYNPSLKSRVTISVDTSKNQFSLKLSSVTAADTAVYYCARGRRLRYFDWAAYNWFDPWGQGTLVTVSS
VL: QSALTQDPAVSVALGQTVRITCQGDSLRSHYASWYQQKPGQAPVVVVYDNSDRPSGIPDRFSGSNSGNTATLTISRVEVGDEADYYCQVWDSSSDHYVFGTGTKV
B4: 2018EP171-H02 scFv (scFv, V domains shown)
VH: QVQLVQSGAEVKKPGSSVKVSCKASGGTFSSYAISWVRQAPGQGLEWMGGIIPIFGTANYAQKFQGRVTITADESTSTAYMELSSLRSEDTAVYYCARDKGYGSGWRGDYWGQGTLVTVSS
VL: QSVLTQPPSASGTPGQRVTISCSGSYSNIGSNFVNWYQQLPGTAPKLLIHFNNQRPSGVPDRFSGSRSGTSASLAISGLQSEDEADYFCSTWDDSLKGPIFGGGTKLTVL
B5: 2018EP172-F10 scFv (scFv, V domains shown)
VH: B4 VH with V2M
VL: B4 VL with N52D
B6: IL-2/anti-PD-L1 scFv Fc EP290/EP326 (bispecific antibody)
chain 1: not shown
chain 2: QVQLVQSGAEVKKPGSSVKVSCKASGGTFSSYAISWVRQAPGQGLEWMGGIIPIFGTANYAQKFQGRVTITADESTSTAYMELSSLRSEDTAVYYCARDKWYGSAWRGDYWGQGTLVTVSSGGGGSGGGGSGGGGSQSVLTQPPSASGTPGQRVTISCSGSYSNIGSNFVNWYQQLPGTAPKLLIHFNNQRPSGVPDRFSGSRSGTSASLAISGLQSEDEADYFCSTWDDSLKGPIFGGGTKLTVLDKTHTCPPCPAPEAAGGPSVFLFPPKPKDTLMISRTPEVTCVVVDVSHEDPEVKFNWYVDGVEVHNAKTKPREEQYNSTYRVVSVLTVLHQDWLNGKEYKCKVSNKALGAPIEKTISKAKGQPREPQVCTLPPSRDELTKNQVSLSCAVKGFYPSDIAVEWESNGQPENNYKTTPPVLDSDGSFKLVSKLTVDKSRWQQGNVFSCSVMHEALHNHYTQKSLSLSPGK
notes: IL2-Fc knob with 2019EP69-F03 scFv-Fc hole (EP326)
B7: IL-2/anti-PD-L1 scFv Fc EP417/EP326 (bispecific antibody)
chain 1: not shown
chain 2: B6 chain 2
notes: IL2 EP339
B8: IL-2/anti-PD-L1 scFv Fc EP412/EP326 (bispecific antibody)
chain 1: not shown
chain 2: B6 chain 2
notes: IL2 with T3A/K35L/R38D/F42R
B9: IL-2/anti-PD-L1 scFv Fc EP414/EP326 (bispecific antibody)
chain 1: not shown
chain 2: B6 chain 2
notes: IL2 EP003 carrying K35L/R38D/F42R
B10: IL-2/anti-PD-L1 scFv Fc EP416/EP326 (bispecific antibody)
chain 1: not shown
chain 2: B6 chain 2
notes: IL2 EP338
B11: IL-2/anti-PD-L1 scFv Fc EP297/EP326 (bispecific antibody)
chain 1: not shown
chain 2: B6 chain 2
notes: IL2 EP001
B12: IL-2/anti-PD-L1 scFv Fc EP291/EP326 (bispecific antibody)
chain 1: not shown
chain 2: B6 chain 2
notes: IL2 EP003
B13: IL-2/anti-PD-L1 scFv Fc EP419/EP326 (bispecific antibody)
chain 1: not shown
chain 2: B6 chain 2
notes: IL2 EP343
B14: 2019EP69-E10 scFv (scFv, V domains shown)
VH: B4 VH with Y102F
VL: B4 VL
B15: 2019EP69-H10 scFv (scFv, V domains shown)
VH: B4 VH with G101W, Y102F
VL: B4 VL
B16: 2019EP69-F02 scFv (scFv, V domains shown)
VH: B4 VH with G101W
VL: B4 VL

The first assay has as its target T1, full-length human PD-L1 on K562 cells (human, UniProt Q9NZQ7 19-290).
T1 construct: also called PD-L1/K562; cell surface human PD-L1
Nature of the assay: FACS, PD-L1/K562 cells. Here is the method:
(§1) Cells were spun down at 1200 rpm for 5 minutes at 4° C. to remove primary antibodies. Cells were then washed once with 200 μL of full medium per well. […] Samples were spun down at 1200 rpm for 5 minutes at 4° C. and washed twice with 200 μL of 1×PBS per well. Samples were reconstituted in 200 μL of 1×PBS and were read on Attune NxT cytometer.
Background: In flow cytometry, cells or beads pass a laser one at a time.
In the case of B1, the EC50 is 7.72 nM.

As to B2, the EC50 is 5.1 nM.

In the case of B3, the EC50 was less than 1 nM.

Regarding B4, the 50% effective concentration (EC50) was determined as 0.25 nM.

Take B5: the EC50 is less than 1 nM.

A further assay addresses biotinylated PD-L1 (Homo sapiens (Human), UniProt Q9NZQ7 19-238, biotinylated; site not stated). Nature of the assay: ELISA, anti-human Fc capture, biotinylated PD-L1. Here is the method: A 384 well plate was immobilized with anti-human Fc at final concentration of 2 μg/mL in 1×PBS in total volume of 25 μL per well. The plate was incubated overnight at 4C followed by blocking with 80 μL of superblock per well for 1 hour. […] In between each step, the plate was washed 3 times with 1×PBST in a plate washer. The plate was then developed with 25 μL of TMB substrate for 5 min and stopped by adding 25 μL of 2N sulfuric acid. The plate was read at OD450 nm Biotek plate reader and the binding correlation was plotted with Prism 8.1 software. The ELISA binding assays of the antibodies to IL-2Rα and IL-2Rβ receptors were performed as described in Example 6.
(In general: An ELISA detects its analyte on a solid surface through an enzyme-linked reagent.)
In the case of B6, the EC50 was determined as 0.141 nM.

The molecule B7 displayed an EC50 of 0.188 nM.

With B8, the EC50 is 0.156 nM.

In the case of B9, a half-maximal effect (EC50) was put at 0.212 nM.

B10: the EC50 came out at 0.298 nM.

On to B11, for which a half-maximal response (EC50) required 0.108 nM.

B12 came in with an EC50 of 0.246 nM.

B13 displayed an EC50 of 0.206 nM.

A further assay concerns the target T2, recombinant His-tagged human IL-2Rβ (human, UniProt P14784 27-240, limits assumed).
T2 construct: also called IL-2Rβ-HIS; IL-15Rβ-HIS
T2 sequence (looked up): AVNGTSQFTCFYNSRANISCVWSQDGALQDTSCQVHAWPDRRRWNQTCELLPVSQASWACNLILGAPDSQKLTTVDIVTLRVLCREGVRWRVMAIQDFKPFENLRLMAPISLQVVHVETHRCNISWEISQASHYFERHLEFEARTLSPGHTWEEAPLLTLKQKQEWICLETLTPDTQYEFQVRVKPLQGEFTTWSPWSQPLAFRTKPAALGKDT
The experiment in a line: SPR, Protein A capture, IL-2Rβ-HIS analyte. Here is the method: (§2) The assay was run with Biacore T200 control software version 2.0. For each cycle, 1 μg/mL of anti-hPD-L1/IL-2 was captured for 60 seconds at flow rate of 10 μL/min on flow cell 2 in 1×HBSP buffer on Protein A sensor chip. […] The flow cells were then regenerated with Glycine pH2 for 60 seconds at flow rate of 30 μL/min. […] The specific binding response unit was derived from subtraction of binding to reference flow cell 1 from antibody captured flow cell 2.
(In SPR one partner is held on a chip, and binding of the other changes the refractive index at the surface.)
For the molecule B6, the Kd amounted to 57.4 nM.

For B7, the Kd is 21.9 nM.

Regarding B8, the dissociation constant Kd was 12000 nM.

As for B10, the Kd amounted to 26.5 nM.

B11: the Kd came out at 3.32 nM, the koff is 0.00854 s⁻¹ and the kon came out at 2.57e+06 M⁻¹ s⁻¹.

Turning to B12, the Kd was 1.87 nM.

The next assay deals with PD-L1 on PD-L1 aAPC/CHOK1 cells (Promega J1250). Nature of the assay: cell-based or functional assay.
B6: the “NFAT reporter EC50” value amounted to 2.3 nM.

Consider B8, for which the “NFAT reporter EC50” value amounted to 2.61 nM.

The target of another assay is T3, human PD-L1-HIS tagged recombinant protein (human, UniProt Q9NZQ7 19-238).
T3 construct: also called hPD-L1-HIS; PD-L1 HIS tagged protein
Nature of the assay: SPR, Protein A capture, PD-L1-HIS analyte. Here is the method:
as §2
B6: the Kd worked out at 0.464 nM.

Turning to B7, the Kd came to 0.429 nM.

Consider B8, for which the equilibrium dissociation constant (Kd) was 0.593 nM.

B10: the dissociation constant (Kd) worked out at 0.39 nM.

For B11, the Kd was found to be 0.19 nM, the koff stood at 0.000149 s⁻¹ and the kon was determined as 782000 M⁻¹ s⁻¹.

In the case of B12, the Kd worked out at 0.34 nM.

Another assay addresses T1, full-length human PD-L1 on K562 cells. Nature of the assay: FACS, PD-L1/K562 cells. This is another data set of the same source. The protocol: as §1
The production, the binding, and all of the characterization assays for selected affinity matured scFv clones were performed as described above.
On to B4, for which the EC50 came to 0.25 nM.

Take B14: the EC50 was 0.207 nM.

B15: the EC50 stood at 0.0799 nM.

Turning to B16, the midpoint of the response, the EC50, lay at 2 nM.

The target of a further assay is T2, recombinant His-tagged human IL-2Rβ. Nature of the assay: ELISA, coated His-tagged IL-2Rβ. Here is the method: For monovalent IL-2 Fc-fusion proteins, recombinant His-tagged human IL-2Rα and IL-2Rβ were added in 25 μL of 1×PBS to wells of 384-well plate and incubated overnight at 4° C. to coat the plates. Plates were washed three times with 0.05% Tween20/1×PBS. Plates were blocked with 100 μL of SuperBlock for 1 hr at RT and then washed 3 times with 0.05% Tween20/1×PBS. IL-2 mutants were diluted in 0.05% Tween 20/1×PBS from 1000 nM to 0 nM and added to plates for 2 hrs at room temperature. Plates were then washed 6 times with 0.05% Tween20/1×PBS. Anti-HisTag-HRP was diluted 1:5000 in 0.05% Tween20/1×PBS and added to plates for 1 hr at RT. Plates were then washed 6 times with 0.05% Tween 20/1×PBS, and TMB was added to develop blue color. Reactions were stopped with 2N […] and light absorbance at 450 nm was read on a BioTek plate reader. Absorbance versus IL-2 concentration is graphed for human IL-2Rα and IL-2Rβ. […]
Regarding B6, the EC50 was 4.01 nM.

Take B7: the half-maximal effective concentration (EC50) is 0.515 nM.

Regarding B8, the EC50 amounted to 2.18 nM.

For B9, the EC50 was 0.51 nM.

For B10, the EC50 was determined as 1.24 nM.

Regarding B11, the EC50 worked out at 0.43 nM.

B12: the EC50 stood at 0.552 nM.

Take B13: the EC50 was 0.613 nM.

A further assay concerns the target T4, PD-L1 biotinylated (PD-1/PD-L1 TR-FRET assay kit, BPS 72038) (Homo sapiens (Human), UniProt Q9NZQ7 19-238, biotinylated; site not stated).
T4 construct: Kit reagent
Nature of the assay: HTRF competition, competitor PD-1-Eu. The protocol: Briefly, 1× Immuno buffer 1 was made. […] For each well in 384-well plate, serial diluted scFvs and regents were added according to manufacturer's recommended volume. Samples were incubated at room temperature for 1.5 hours then the fluorescent intensity was read with Biotek Neo2 plate reader using manufacture's instrument setting for the assay.
As for B6, the half-maximal inhibitory concentration (IC50) was determined as 176 nM.

B8 registered an IC50 of 134 nM.
